Test results as given in US20180125995A1, “ANTI-STAPHYLOCOCCUS AUREUS ANTIBODY RIFAMYCIN CONJUGATES AND USES THEREOF” (priority 2014, published 2018).

Experiments:
MRSA strain USA300 = assay: Flow cytometry binding of mAbs to USA300 bacteria; parameters: species or system Staphylococcus aureus; settings: MFI
Procedure: (§1) (FIGS. 5A-C) Bacteria were preopsonized with huIgG1 mAbs rF1 (squares), 4675 anti-ClfA (triangles), or anti-herpes virus gD (circles). (FIG. 5A): Binding of mAbs to WT (USA300-Aspa) bacteria was assessed by flow cytometry, and expressed as mean fluorescent intensity (MFI). (FIG. 5B): CFSE-labeled, preopsonized WT (USA300-Aspa) bacteria were incubated with human PMN. Bacterial uptake was expressed as % of CFSE-positive PMN, after gating for CD11b-positive cells by flow cytometry. (FIG. 5C): Preopsonized WT (USA300-Aspa) bacteria were incubated with PMN to assess bacterial killing. Numbers of viable CFU per mL are representative of at least three experiments.
(§2) Whole bacteria were harvested from TSA plates or TSB cultures and washed with HBSS without phenol red supplemented with 0.1% IgG free BSA (Sigma) and 10 mM Hepes, pH 7.4 (HB buffer) Bacteria (20×10^8 CFU/mL) were incubated with 300 μg/mL of rabbit IgG (Sigma) in HB buffer for 1 h at room temperature (RT) to block nonspecific IgG binding. Bacteria were stained with 2 μg/mL of primary antibodies, including rF1 or isotype control IgG1 mAb gD:5237 (Nakamura G R, et al. (1993) J Virol 67: 6179-6191), and next with fluorescent anti-human IgG secondary antibodies (Jackson Immunoresearch, West Grove, Pa.). The bacteria were washed and analyzed by FACSCalibur® (BD).

[1] = system: USA300 derived from infected mouse kidneys, livers and lungs; assay: FACS analysis of rF1 binding to USA300 from infected mouse tissues; parameters: species or system Staphylococcus aureus
Procedure: (§3) For antibody staining of bacteria from infected mouse tissues, 6-8 weeks old female C57Bl/6 mice (Charles River, Wilmington, Mass.) were injected intravenously with 10^8 CFU of logphase-grown USA300 in PBS. Mouse organs were harvested two days after infection. Rabbit infective endocarditis (IE) was established as described in Tattevin P, et al. (2010) Antimicrobial agents and chemotherapy 54: 610-613. Rabbits were injected intravenously with 5×10^7 CFU of stationary-phase grown MRSA strain COL, and heart vegetations were harvested eighteen hours later. Treatment with 30 mg/kg of vancomycin was given intravenously b.i.d. 18 h after infection with 7×10^7 CFU stationary-phase COL.
(§4) To lyse mouse or rabbit cells, tissues were homogenized in M tubes (Miltenyi, Auburn, Calif.) using a gentleMACS® cell dissociator (Miltenyi), followed by incubation for 10 min at RT in PBS containing 0.1% Triton-X100 (Thermo), 10 µg/mL of DNAseI (Roche) and Complete Mini protease inhibitor cocktail (Roche). The suspensions were passed through a 40 micron filter (BD) and bacteria were stained with mAbs as described above. […] During flow cytometry analysis, bacteria were gated for positive staining with mAb 702 from double fluorescence plots. […]

[2] = system: MRSA COL bacteria from heart vegetations; assay: FACS analysis of rF1 binding to bacteria from rabbit infective endocarditis heart vegetations; parameters: species or system Staphylococcus aureus; settings: rabbit model of infectious endocarditis
Procedure: as §3, §4

[3] = system: S. saprophyticus, S. lugdunensis, S. simulans, S. carnosus, Streptococcus pyogenes, Bacillus subtilis, Enterococcus faecalis, Listeria monocytogenes; assay: FACS analysis of rF1 binding to other staphylococcal and Gram-positive species; settings: flow cytometry
Procedure: as §2

USA300 = assay: Uptake and killing of preopsonized USA300 by human PMN; format: cell-based, Staphylococcus aureus
Procedure: as §1

15 S. aureus strains = assay: FACS analysis of rF1 binding to S. aureus strains; parameters: species or system Staphylococcus aureus; settings: flow cytometry, all 15 strains tested
Procedure: as §2

S. epidermidis = assay: FACS analysis of rF1 binding to S. epidermidis; parameters: species or system Staphylococcus epidermidis; settings: flow cytometry
Procedure: as §2

B1: rF1: recombinantly produced F1, fully human IgG1 anti-SDR monoclonal antibody binding S. aureus and S. epidermidis (antibody, V domains shown)
VH: EVQLVESGGGLVQPGGSLRLSCAASGFTLSRFAMSWVRQAPGRGLEWVASINNGNNPYYARSVQYRFTVSRDVSQNTVSLQMNNLRAEDSATYFCAKDHPSSGWPTFDSWGPGTLVTVSS
VL: DIQLTQSPSALPASVGDRVSITCRASENVGDWLAWYRQKPGKAPNLLIYKTSILESGVPSRFSGSGSGTEFTLTISSLQPDDFATYYCQHYMRFPYTFGQGTKVEIKRTV
MRSA strain USA300
  maximum binding relative to isotype-matched anti-ClfA mAb: approximately 10 fold
[1]; kidneys, livers and lungs after systemic infection
  binding to USA300 from infected mouse tissues: strongly bound
[1]; mouse kidneys
  duration of sustained binding to USA300 from mouse kidneys after infection: at least 8 days
[2]
  binding to MRSA COL from rabbit heart vegetations: strongly bound
[3]
  binding to other staphylococcal and Gram-positive species: did not bind
USA300; no PMN
  viability of USA300 in the absence of PMN: did not affect viability
USA300; preopsonized USA300, human PMN
  bacterial killing by PMN (viability): potent killing
  bacterial uptake by PMN: increased uptake
15 S. aureus strains
  binding to S. aureus strains: potent binding activity
S. epidermidis
  binding to S. epidermidis: detectable
